Results as given in patent US20210283233A1.

Target: T1, rPfSEP-1A (recombinant polypeptide encoded by nt 2,431-3,249 of PF3D7_1021800, aa 810-1083 of PfSEP-1)
T1 chain: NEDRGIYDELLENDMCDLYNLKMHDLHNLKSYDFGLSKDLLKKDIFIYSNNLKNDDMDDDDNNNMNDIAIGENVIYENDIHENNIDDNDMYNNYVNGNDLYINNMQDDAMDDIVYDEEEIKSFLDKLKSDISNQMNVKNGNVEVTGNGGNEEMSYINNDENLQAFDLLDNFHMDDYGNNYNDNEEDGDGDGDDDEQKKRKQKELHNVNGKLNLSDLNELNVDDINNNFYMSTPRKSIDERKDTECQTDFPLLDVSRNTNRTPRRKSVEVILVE

B1: rPfCDPK-5 (recombinant Plasmodium falciparum calcium-dependent protein kinase 5, PF3D7_1337800) (protein)
chain: MKETEVEDMDTNRKDGKIKKKEKIVNMKNEEVKSTTKSTLADSDEDYSIITLCTKCLSKKLEDNKNRIILDSKAFKDNRLKGRCSVSSNEDPLDNKLNLSPYFDRSQIIQEIILMNNDELSDVYEIDRYKLGKGSYGNVVKAVSKRTGQQRAIKIIEKKKIHNIERLKREILIMKQMDHPNIIKLYEVYEDNEKLYLVLELCDGGELFDKIVKYGSFSEYEAYKIMKQIFSALYYCHSKNIMHRDLKPENILYVDNTEDSPIQIIDWGFASKCMNNHNLKSVVGTPYYIAPEILRGKYDKRCDIWSSGVIMYILLCGYPPFNGKNNDEILKKVEKGEFVFDSNYWARVSDDAKDLICQCLNYNYKERIDVEQVLKHRWFKKFKSNNLIINKTLNKTLIEKFKEFHKLCKIKKLAVTCIAYQLNEKDIGKLKKTFEAFDHNGDGVLTISEIFQCLKVNDNEFDRELYFLLKQLDTDGNGLIDYTEFLAACLDHSIFQQDVICRNAFNVFDLDGDGVITKDELFKILSFSAVQVSFSKEIIENLIKEVDSNNDGFIDYDEFYKMMTGVKE
  phosphorylation: rPfCDPK-5 was found to phosphorylate rPfSEP-1A
